According to article PMC3606321, “Identification and characterization of two distinct PPP1R2 isoforms in human spermatozoa” (BMC Cell Biology, 2013):

Key:
[1] = target: purified recombinant PPP1CC1 (UniProt P36873 1-323); test: cell-based or functional assay
[2] = target: purified recombinant PPP1CC2 (UniProt P36873-2 1-337); test: cell-based or functional assay
purified recombinant PPP1CC2, sequence (P36873 other isoform, or with tags, fused parts or gaps): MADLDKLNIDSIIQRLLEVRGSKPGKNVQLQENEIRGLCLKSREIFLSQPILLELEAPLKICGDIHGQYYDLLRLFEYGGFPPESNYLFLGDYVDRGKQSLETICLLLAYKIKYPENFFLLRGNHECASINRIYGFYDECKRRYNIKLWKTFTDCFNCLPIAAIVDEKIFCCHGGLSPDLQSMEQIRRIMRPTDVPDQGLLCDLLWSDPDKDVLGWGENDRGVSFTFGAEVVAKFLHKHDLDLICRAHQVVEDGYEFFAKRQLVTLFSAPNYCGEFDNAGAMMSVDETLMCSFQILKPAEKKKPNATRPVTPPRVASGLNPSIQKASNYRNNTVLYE

purified recombinant PPP1CC1, sequence (P36873 whole entry): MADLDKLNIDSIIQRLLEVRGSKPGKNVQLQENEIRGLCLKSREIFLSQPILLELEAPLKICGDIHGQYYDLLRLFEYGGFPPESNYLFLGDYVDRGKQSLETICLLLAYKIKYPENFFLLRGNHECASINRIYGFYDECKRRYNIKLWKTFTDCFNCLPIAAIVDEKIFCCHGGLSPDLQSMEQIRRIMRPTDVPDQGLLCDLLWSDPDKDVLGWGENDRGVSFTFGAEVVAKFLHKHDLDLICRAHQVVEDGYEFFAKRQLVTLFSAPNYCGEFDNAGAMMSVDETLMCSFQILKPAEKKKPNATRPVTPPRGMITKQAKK

- IC50 of inhibition of PPP1CC1 in the phosphorylase phosphatase assay ([32P]phosphorylase a as substrate) [1]: 0.73 nM
- IC50 of inhibition of PPP1CC2 in the phosphorylase phosphatase assay ([32P]phosphorylase a as substrate) [2]: 0.09 nM
B1: His-PPP1R2P3 (natural protein, human, UniProt Q6NXS1 1-205, looked up)
chain: MAASTASHRPIKGILKNKTSTTSSMVASAEQPRRSVDEELSKKSQKWDEINILATYHPADKGYGLMKIDEPSPPYHSMMGDDEDACRDTETTEAMAPDILAKKLAAAEGLEPKYRIQEQESSGEEDSDLSPEEREKKRQFEMRRKLHYNEGLNIKLARQLISKDLHDDDEDEEMLETADGESMNTEESNQGSTPSDQQQNKLRSS
